Assay [1] has as its target T1, human Bcl-xL ΔC24 (human, UniProt Q07817 1-209).
T1 construct: Expressed as GST fusion and cleaved off the glutathione column; also called hBcl-xL ΔC24
Briefly: solution competition on Biacore. (In SPR one partner is held on a chip, and binding of the other changes the refractive index at the surface.)

The target in assay [2] is T2, human Bcl-w ΔC29 (C29S A128E) (human, UniProt Q92843 1-164).
T2 construct: range 1-164; residues 1-209), which are those of Bcl-xL; also called hBcl-w
T2 sequence: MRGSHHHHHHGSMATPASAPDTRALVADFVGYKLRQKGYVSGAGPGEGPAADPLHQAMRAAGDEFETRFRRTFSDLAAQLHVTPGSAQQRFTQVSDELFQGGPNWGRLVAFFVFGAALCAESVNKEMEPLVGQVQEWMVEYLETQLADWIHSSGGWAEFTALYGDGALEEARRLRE
Nature of the assay: solution competition on Biacore.

The target of assay [3] is T3, human Bcl-2 ΔC22 (human, UniProt P10415 1-217).
T3 construct: Recombinant, bacterial, N-terminal HexaHis fusion; hydrophobic C-terminus removed; also called hBcl-2
T3 sequence (P10415 other isoform, or with tags, fused parts or gaps mutant limits assumed): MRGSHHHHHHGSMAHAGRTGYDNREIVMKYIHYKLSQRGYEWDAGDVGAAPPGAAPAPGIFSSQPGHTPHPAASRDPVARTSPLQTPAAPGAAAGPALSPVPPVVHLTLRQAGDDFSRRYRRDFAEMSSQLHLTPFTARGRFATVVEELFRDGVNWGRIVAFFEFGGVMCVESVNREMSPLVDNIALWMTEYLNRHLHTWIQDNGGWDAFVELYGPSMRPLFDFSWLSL
Briefly: solution competition on Biacore.

For assay [4], the target named is T1, human Bcl-xL ΔC24. Briefly: Biacore solution competition against immobilised mouse wtBimBH3. An excerpt: (§1) The baseline response (control channel) was subtracted to obtain the absolute binding response. […] Theoretically, IC50=[A]/2+KD, where [A] is the analyte concentration.
(§2) To assess if other BH3 peptides bind pro-survival proteins similarly, we directly compared their binding affinities in solution using a competitive binding assay. […] As the IC50 values reflect relative binding affinities (see Experimental Procedures), we used this assay to compare the binding affinities of eight BH3 peptides (Table 3) to the five pro-survival proteins.

Assay [5] addresses T2, human Bcl-w ΔC29 (C29S A128E). The description is as above.
From the text: as §1, §2

The target in assay [6] is T3, human Bcl-2 ΔC22. Described as above.
From the text: as §1, §2

Assay [7] concerns the target T4, FLAG-tagged human Bcl-xL (full-length) (human, UniProt Q07817 1-233).
T4 construct: whole, on cells; Full-length, expressed in 293T cells, precipitated from lysates; also called FLAG-Bcl-xL; Bcl-xL (in cells)
Nature of the assay: co-immunoprecipitation from 293T lysates, 35S fluorography (F) and immunoblot of the same filters (G) [G]. An excerpt:
(§3) Equivalent ³⁵S-labeled lysates harvested from 293T cells were immunoprecipitated with antibodies to the HA, FLAG (FL) or control (C) tags.
(§4) The maintenance, transfection and metabolic labeling of the human embryonic kidney (HEK) 293T cells with ³⁵S-methionine/cysteine (NEN) as well as co-immunoprecipitation have been described (Huang et al., Supra; Moriishi et al., Proc Natl Acad Sci USA 96:9683-9688, 1999; O'Conner et al., Supra). Briefly, equivalent TCA-precipitable lysates were immunoprecipiated using the mouse monoclonal antibodies to HA (HA.11; CRP), FLAG (M2; Sigma) and control Glu-Glu (CRP) tags. The proteins were resolved by SDS:PAGE, transferred onto nitrocellulose membranes and detected by fluorography (Amplify; Amersham Biosciences).
A general note: Immunoblotting shows a protein as a band on a membrane.

Assay [8] deals with T5, FLAG-tagged human Bcl-2 (full-length) (human, UniProt P10415 1-239).
T5 construct: whole, on cells; Full-length, expressed in 293T cells, precipitated from lysates; also called FLAG-Bcl-2; Bcl-2 (in cells)
T5 sequence (P10415 other isoform, or with tags, fused parts or gaps): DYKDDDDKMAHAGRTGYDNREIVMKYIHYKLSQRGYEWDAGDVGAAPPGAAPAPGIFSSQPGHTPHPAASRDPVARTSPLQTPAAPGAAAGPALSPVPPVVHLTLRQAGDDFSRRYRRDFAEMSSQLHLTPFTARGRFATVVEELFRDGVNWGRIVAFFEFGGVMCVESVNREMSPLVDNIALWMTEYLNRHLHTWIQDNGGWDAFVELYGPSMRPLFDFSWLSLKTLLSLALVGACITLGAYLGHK
Described as above.
From the text: as §3, §4

Assay [9] concerns the target T1, human Bcl-xL ΔC24. Nature of the assay: Biacore solution competition against immobilised mouse wtBimBH3. An excerpt:
FIG. 1 is a graphical representation showing competitive binding assays. […] (C) Solution competition assay. […] The line (at 430 s) indicates the response used for calculating the IC50. […] (Irregular responses after 500 s are due to washing the chips after analyte dissociation). Color reproductions are available from the patentees on request.
The baseline response (control channel) was subtracted to obtain the absolute binding response.
The source holds these as a separate data set.

In assay [10] the target is T6, FLAG-tagged mouse Mcl-1 (full-length) (mouse, UniProt P97287 1-331).
T6 construct: whole, on cells; Full-length, expressed in 293T cells, precipitated from lysates; also called FLAG-Mcl-1; Mcl-1 (in cells)
T6 sequence (P97287 other isoform, or with tags, fused parts or gaps): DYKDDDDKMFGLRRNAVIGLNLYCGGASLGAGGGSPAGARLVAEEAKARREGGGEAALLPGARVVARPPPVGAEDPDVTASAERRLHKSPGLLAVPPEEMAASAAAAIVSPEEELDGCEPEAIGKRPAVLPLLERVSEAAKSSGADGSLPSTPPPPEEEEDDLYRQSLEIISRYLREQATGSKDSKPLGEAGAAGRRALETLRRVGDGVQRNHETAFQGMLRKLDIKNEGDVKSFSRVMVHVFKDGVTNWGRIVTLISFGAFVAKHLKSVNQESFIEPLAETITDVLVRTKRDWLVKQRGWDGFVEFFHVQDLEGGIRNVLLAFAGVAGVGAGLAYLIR
Briefly: co-immunoprecipitation from 293T lysates, 35S fluorography (D) and immunoblot of the same filters (E) [E].
From the text: as §3, §4

For assay [11], the target named is T1, human Bcl-xL ΔC24. Nature of the assay: solution competition on Biacore, immobilised m wtBimBH3.
From the text: as §1

Assay [12] concerns the target T1, human Bcl-xL ΔC24. Nature of the assay: SPR direct binding, protein over immobilised NoxaBH3. Here is the method:
Affinity measurements were performed at room temperature on a Biacore 3000 biosensor (Biacore) with HBS (10 mM HEPES pH 7.2, 150 mM NaCl, 3.4 mM EDTA, 0.005% Tween 20) as the running buffer. […] Residual bound proteins were desorbed with 50 mM NaOH or 6 M GuHCl (pH 7.2), followed by two washes with running buffer. Binding kinetics were derived from sensorgrams, following subtraction of baseline responses, using BIA evaluation software (version 3, Biacore) (Wilson-Annan et al., Supra).

Assay [13] deals with T1, human Bcl-xL ΔC24. Nature of the assay: solution competition on Biacore (IC50 ratio).
Assay [14] addresses T2, human Bcl-w ΔC29 (C29S A128E). Nature of the assay: Biacore solution competition against immobilised mouse wtBimBH3.
From the text: as §1
The source holds these as a separate data set.

The target in assay [15] is T3, human Bcl-2 ΔC22. The description is as above.
From the text: as §1
This is another data set of the same source.

Assay [16] deals with T1, human Bcl-xL ΔC24. Nature of the assay: solution competition on Biacore (FIG. 9C).
From the text: as §1

Assay [17] concerns the target T2, human Bcl-w ΔC29 (C29S A128E). Briefly: solution competition on Biacore (FIG. 9C).
From the text: as §1

Like-named read-outs stand apart in the source and are kept apart here. A value given as a limit tells only on which side of the number the result lay.

T1 sequence (Q07817 other isoform, or with tags, fused parts or gaps mutant limits assumed): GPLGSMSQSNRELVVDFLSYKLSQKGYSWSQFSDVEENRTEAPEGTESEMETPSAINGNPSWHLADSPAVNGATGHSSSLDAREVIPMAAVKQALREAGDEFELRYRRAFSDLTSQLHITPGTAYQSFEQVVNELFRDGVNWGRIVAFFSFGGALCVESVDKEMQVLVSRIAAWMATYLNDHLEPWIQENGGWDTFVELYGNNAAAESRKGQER
T4 sequence (Q07817 other isoform, or with tags, fused parts or gaps): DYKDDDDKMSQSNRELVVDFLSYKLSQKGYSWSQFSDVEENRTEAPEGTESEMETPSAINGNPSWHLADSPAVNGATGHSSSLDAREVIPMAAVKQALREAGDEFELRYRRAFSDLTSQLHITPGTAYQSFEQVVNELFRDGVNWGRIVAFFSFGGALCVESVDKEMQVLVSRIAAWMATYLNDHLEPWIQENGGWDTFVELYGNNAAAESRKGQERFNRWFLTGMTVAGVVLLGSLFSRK

As for RAELPPEFAAQLRKIGDKVYCTWSAP (also called mouse Noxa BH3 peptide 1) [m Noxa1 (16-41) BH3 peptide], the binding result (with human Bcl-xL ΔC24 [1]; in [2]; in the assay with human Bcl-2 ΔC22 [3]) was “no binding” each time.

B1: Hrk (26-51) BH3 peptide, human (peptide)
peptide: not shown
notes: also called HrkBH3
One may read the IC50 as the midpoint of a concentration-inhibition curve. Higher therefore signals weaker potency. Take B1: the IC50 with human Bcl-xL ΔC24 [4] amounted to 3.7 nM; in assay [5] it was 49 nM; in the assay with human Bcl-2 ΔC22 [6] it was 320 nM.

Regarding HRAEVQIARKLQCIADQFHRLHTQ (also called BmfBH3) [m Bmf (128-151) BH3 peptide], the IC50 with human Bcl-xL ΔC24 [4] came to 9.7 nM; in assay [5] it was 9.8 nM; with human Bcl-2 ΔC22 [6], 3 nM.

For the molecule NLWAAQRYGRELRRMSDEFVDSFKKG (also called BadBH3) [Bad (103-128) BH3 peptide, human], the IC50 with human Bcl-xL ΔC24 [4] worked out at 5.3 nM; in assay [5] it was 30 nM; in the assay with human Bcl-2 ΔC22 [6], 16 nM.

B2: HA-tagged full-length mouse Noxa (other)
chain: YPYDVPDYAMPGRKARRNAPVNPTRAELPPEFAAQLRKIGDKVYCTWSAPDITVVLAQMPGKSQKSRMRSPSPTRVPADLKDECAQLRRIGDKVNLRQKLLNLISKLFNLVT
notes: whole, on cells; also called HA-Noxa; Noxa (full-length mouse Noxa bearing two BH3s)
With B2, the binding result in [7] and in [8] was “no binding” in each case.

B3: m Noxa2 (68-93) BH3 peptide (peptide)
peptide: PADLKDECAQLRRIGDKVNLRQKLLN
notes: also called mNoxa B; mouse Noxa BH3 peptide 2
For B3, the binding result (with human Bcl-xL ΔC24 [1]; in assay [2]; with human Bcl-2 ΔC22 [3]) was “no binding” each time.

For the molecule MEGSDALALRLACIGDEMDVSLRAP (also called BikBH3; hBik) [Bik (51-75) BH3 peptide, human], the IC50 with human Bcl-xL ΔC24 [4] came to 43 nM; in assay [5], 12 nM. In the assay with human Bcl-xL ΔC24 [9], the “IC50 (read off the curve)” value was roughly 40 nM.

As for DIIRNIARHLAQVGDSMDRSIPPG (also called BidBH3) [Bid (81-104) BH3 peptide, human], the IC50 with human Bcl-xL ΔC24 [4] is 82 nM; in assay [5] it was 40 nM; in the assay with human Bcl-2 ΔC22 [6], 6800 nM.

B4: HA-tagged full-length mouse Bad (other)
chain: YPYDVPDYAMGTPKQPSLAPAHALGLRKSDPGIRSLGSDAGGRRWRPAAQSMFQIPEFEPSEQEDASATDRGLGPSLTEDQPGPYLAPGLLGSNIHQQGRAATNSHHGGAGAMETRSRHSSYPAGTEEDEGMEEELSPFRGRSRSAPPNLWAAQRYGRELRRMSDEFEGSFKGLPRPKSAGTATQMRQSAGWTRIIQSWWDRNLGKGGSTPSQ
notes: whole, on cells; also called HA-Bad; Bad (in cells)
With B4, in assay [10], the binding result is recorded as “no binding”.

With PAELEVECATQLRRFGDKLNFRQKLL (also called NoxaBH3; wt NoxaBH3) [Noxa (18-43) BH3 peptide, human], the IC50 (with human Bcl-xL ΔC24 [4]; in [5]; with human Bcl-2 ΔC22 [6]; in the assay with human Bcl-xL ΔC24 [11]) was greater than 100000 nM throughout. Also, the binding result in the assay with human Bcl-xL ΔC24 [12] is given as “no binding”.

PAELEVECATQLRRIGDKLNFRQKLL (also called Noxa m2; F32I) [Noxa (18-43) mt2]: in the assay with human Bcl-xL ΔC24 [13], the “fold tighter than wild type” value is no less than 90 fold. For the same molecule, the half-maximal inhibitory concentration (IC50) in the assay with human Bcl-xL ΔC24 [11] was 1100 nM; with human Bcl-2 ΔC22 [15], greater than 100 µM. In addition, the binding result in [14] is on record as “binds”. Also, the “fold increase of binding against wt NoxaBH3” value in the assay with human Bcl-xL ΔC24 [16] was greater than 100 fold.

PAELEVECATQLRRFGDELNFRQKLL (also called Noxa m1; K35E) [Noxa (18-43) mt1]: the “fold tighter than the wild-type peptide” value with human Bcl-xL ΔC24 [13] is no less than 17 fold. The results for the IC50 with human Bcl-xL ΔC24 [11] and in the assay with human Bcl-2 ΔC22 [15] were 5800 nM and greater than 100 µM, respectively. The binding result in [14] is “binds”. For the same molecule, in the assay with human Bcl-xL ΔC24 [16], the “fold increase of binding against wt NoxaBH3” value is greater than 20 fold.

B5: Noxa (18-43) mt3 (peptide)
peptide: PAELEVECATQLRRIGDELNFRQKLL
notes: also called Noxa m3 (peptide); double mutant K35E F32I
In the case of B5, the IC50 is 100 nM in the assay with human Bcl-xL ΔC24 [1], 110 nM in the assay with human Bcl-xL ΔC24 [11] and 410 nM in assay [17]. In addition, the binding result with human Bcl-2 ΔC22 [15] is “binds”.

For the origin of these results see patent US20080027145A1 (published 2008).
